Measurements published in paper PMC6199259, “Structural and functional insights into the interaction and targeting hub TMD0 of the polypeptide transporter TAPL” (Scientific Reports, 2018).

Experiments:
coreTAPLmV = target: T1, coreTAPLmV (Homo sapiens, UniProt Q9NP78); conditions: 3 mM ATP, 3 uM RRYC(fluorescein)KSTEL, 3 mM MgCl2, pH 7.5, 37 °C, 15 min; with cf-TMD0-His co-reconstituted
T1 construct: gene ABCB9

TmrAB = target: T2, TmrAB (Thermus thermophilus, UniProt Q72J04+Q72J05); conditions: 3 mM ATP, 3 uM RRYC(fluorescein)KSTEL, 3 mM MgCl2, pH 7.5, 37 °C, 15 min; with cf-TMD0-His co-reconstituted
T2 construct: gene TT_C0976

[1] = target: cf-TMD0-His (M1 – P142), cell-free expressed (human) (UniProt Q9NP78); assay: SEC-MALS; 400 µg cf-TMD0-His on TSK-GEL G3000SWXL, 4 °C; 25 mM Na acetate, 300 mM NaCl, 0.7% c6-DHPC, pH 5.0; three-detector method (UV, refractive index, light scattering)
[2] = target: cf-TMD0-His S28C, MTSL labeled (human) (UniProt Q9NP78); assay: PELDOR (DEER) spectroscopy; MTSL labeled single cysteine cf-TMD0-His in c6-DHPC with 15–20% deuterated glycerol, frozen; Q-band (33.4 GHz), 50 K; modulation depth and distance distribution by Tikhonov regularization
[3] = target: cf-TMD0-His S138C, MTSL labeled (human) (UniProt Q9NP78); assay: as above

`Nc1ncnc2c1ncn2[C@@H]1O[C@H](COP(=O)(O)OP(=O)(O)OP(=O)(O)O)[C@@H](O)[C@H]1O` [ATP] was tested, and the “ATP-dependent peptide transport in proteoliposomes, fluorescence” value (coreTAPLmV) was “Functional reconstitution of coreTAPLmV as well as TmrAB into liposomes was demonstrated by ATP-dependent peptide transport” and the “ATP-dependent peptide transport in proteoliposomes, fluorescence” value (TmrAB) was “Functional reconstitution of coreTAPLmV as well as TmrAB into liposomes was demonstrated by ATP-dependent peptide transport”.

With “cf-TMD0-His (M1 – P142), cell-free expressed (from UniProt Q9NP78 1-142) (domain or fragment)” the stoichiometry N [1] was 2.

Work on “cf-TMD0-His S28C, MTSL labeled (from UniProt Q9NP78 1-142) (domain or fragment)” yielded a stoichiometry N [2] of 2.

In the case of “cf-TMD0-His S138C, MTSL labeled (from UniProt Q9NP78 1-142) (domain or fragment)”, the stoichiometry N [3] is reported as 2.
